# How the values were obtained:
# [1] = molecular target: Rhinovirus C15 (RV-C15) virus particles (rhinovirus C15); assay: ELISA
# [2] = molecular target: Rhinovirus C15 (RV-C15) virus particles (rhinovirus C15)
# [3] = molecular target: Rhinovirus C15 (RV-C15) virus particles (rhinovirus C15); assay: ELISA; RV-C15 coated on the plate; native SP-A or recombinant SP-A variants at a single concentration of 10 µg/mL, with 5 mM CaCl2; A490 nm
Substance,A490nm at 10 µg/mL [1] [A490nm],"RV-C15-GFP viral copy numbers in NECs at 48 h with rSP-A2 [A91, K223] at 400 µg/mL, percent of RV-C15-GFP infection control (% of RV-C15-GFP infection control) [2]",A490nm at 10 µg/mL [3] [A490nm],"RV-C15-GFP viral copy numbers in NECs at 48 h with rSP-A2 [A91, Q223] at 400 µg/mL, percent of RV-C15-GFP infection control (% of RV-C15-GFP infection control) [2]"
Native surfactant protein A (SP-A) (from UniProt Q8IWL2 21-248; Q8IWL1 21-248) (complex),2.01,–,–,–
"Recombinant SP-A2 [A91, K223] (from UniProt Q8IWL1 21-248) (natural protein)",–,40.2,1.19,–
"Recombinant SP-A2 [A91, Q223] (from UniProt Q8IWL1 21-248) (natural protein)",–,–,0.19,54.8
"Recombinant SP-A2 [P91, K223] (from UniProt Q8IWL1 21-248) (natural protein)",–,–,1.67,–
"Recombinant SP-A2 [P91, Q223] (from UniProt Q8IWL1 21-248) (natural protein)",1.61,–,–,–

# Source: paper PMC11598966
